Measurements as given in patent US7371828.

B1: human ERK5 (hERK5) wild type protein (protein)
chain: MSSPPPGGSGFYRQEVTKTAWEVRAVYRDLQPVGSGAYGAVCSAVDGRTGAKVAIKKLYRPFGSELFAKLAYRELRLLKHMRHENVIGLLDVFTPDETLDDFTDFYLVMPFMGTDLGKLMKHEKLGEDRIQFLVYQMMKGLRYIHAAGIIHRDLKPGNLAVNEDCELKILDFGLARQADSEMTGYVVTRWYRAPEVILNWIAYTQTVDIWSVGCIMAEMITGKTLFKGSDHLDQLKEIMKVTGTPPAEFVQRLQSDEAKNYMKGLPELEKKDFASILTNASPLAVNLLEKMLVLDADIRLTAGEFLSHPYFESLHDTEDEPQVQKYDDSFDYFDRTLDEWKPCYLQRGAQLQASPAAGGQGLQGDASVKISGLRGGSEDHLHLPPERGLSLPP
B2: hERK5 Y185F mutant (protein)
chain: MSSPPPGGSGFYRQEVTKTAWEVRAVYRDLQPVGSGAYGAVCSAVDGRTGAKVAIKKLYRPFGSELFAKLAYRELRLLKHMRHENVIGLLDVFTPDETLDDFTDFYLVMPFMGTDLGKLMKHEKLGEDRIQFLVYQMMKGLRYIHAAGIIHRDLKPGNLAVNEDCELKILDFGLARQADSEMTGFVVTRWYRAPEVILNWIAYTQTVDIWSVGCIMAEMITGKTLFKGSDHLDQLKEIMKVTGTPPAEFVQRLQSDEAKNYMKGLPELEKKDFASILTNASPLAVNLLEKMLVLDADIRLTAGEFLSHPYFESLHDTEDEPQVQKYDDSFDYFDRTLDEWKPCYLQRGAQLQASPAAGGQGLQGDASVKISGLRGGSEDHLHLPPERGLSLPP

Biological target: T1, MBP from bovine brain (Sigma), P02687
T1 chain: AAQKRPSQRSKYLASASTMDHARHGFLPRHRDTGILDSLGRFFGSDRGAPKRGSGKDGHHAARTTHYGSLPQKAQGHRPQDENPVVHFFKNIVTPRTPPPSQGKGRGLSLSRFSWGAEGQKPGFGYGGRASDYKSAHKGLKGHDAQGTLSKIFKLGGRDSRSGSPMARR

Row | Protein | MBP kinase activity (32P incorporation in MBP-containing polyacrylamide gel) | MBP phosphorylation assay
1 | B1 | A predominant signal is observed at 56 kD; A weaker signal at the position of the 44/46 kD bands | –
2 | B2 | the lack of ^32P incorporation in lanes 5 and 6 | this mutant is indeed kinase negative
